The record followed here is publication doi:10.1101/2025.09.11.675649.

For the assay, the target named is Amuc1033^6S-GlcNAc (Akkermansia muciniphila) (UniProt B2UQX4). In words: SEC-MALS.

Take “Amuc1033^6S-GlcNAc (from UniProt B2UQX4 1-581) (enzyme)”: the stoichiometry N was 2.
